Columns and labels:
[1] = biological target: T1, PPFIBP1 (human, UniProt Q86W92 1-1011, limits assumed); assay: IP/MS, LZTR1 wild type-FLAG, U87
T1 sequence (looked up): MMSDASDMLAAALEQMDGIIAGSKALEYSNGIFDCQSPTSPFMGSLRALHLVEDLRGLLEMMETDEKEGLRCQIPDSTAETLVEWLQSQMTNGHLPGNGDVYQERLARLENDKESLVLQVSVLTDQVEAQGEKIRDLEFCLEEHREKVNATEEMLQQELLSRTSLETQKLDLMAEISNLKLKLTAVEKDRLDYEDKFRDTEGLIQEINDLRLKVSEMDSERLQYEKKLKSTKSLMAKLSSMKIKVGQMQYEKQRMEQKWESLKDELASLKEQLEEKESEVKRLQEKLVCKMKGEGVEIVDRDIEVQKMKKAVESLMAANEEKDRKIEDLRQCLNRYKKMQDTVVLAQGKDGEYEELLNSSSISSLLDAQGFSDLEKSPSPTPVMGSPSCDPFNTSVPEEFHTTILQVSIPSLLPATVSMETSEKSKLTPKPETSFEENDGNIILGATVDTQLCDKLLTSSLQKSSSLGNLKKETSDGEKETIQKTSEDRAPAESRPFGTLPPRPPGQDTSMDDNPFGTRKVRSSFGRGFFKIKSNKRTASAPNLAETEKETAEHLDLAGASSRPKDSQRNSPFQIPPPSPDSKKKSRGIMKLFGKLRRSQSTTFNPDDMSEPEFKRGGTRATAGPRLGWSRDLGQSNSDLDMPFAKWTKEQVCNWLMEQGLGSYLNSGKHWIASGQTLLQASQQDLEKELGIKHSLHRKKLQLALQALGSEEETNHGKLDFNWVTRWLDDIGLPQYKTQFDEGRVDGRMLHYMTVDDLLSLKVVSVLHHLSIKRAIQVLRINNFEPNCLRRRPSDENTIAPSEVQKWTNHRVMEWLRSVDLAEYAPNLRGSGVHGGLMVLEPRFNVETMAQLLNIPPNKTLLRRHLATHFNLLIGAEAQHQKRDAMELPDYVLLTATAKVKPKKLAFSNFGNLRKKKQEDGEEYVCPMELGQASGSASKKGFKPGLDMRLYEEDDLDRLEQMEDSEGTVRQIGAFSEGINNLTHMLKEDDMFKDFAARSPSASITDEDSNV
In short: (§1)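 Read-out: spectral counts from LC-MS/MS (Orbitrap Fusion) after MaxQuant identification. Variable modifications were Met oxidation, protein N-terminal acetylation and N/Q deamidation.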

[2] = biological target: T2, MOCOS (human, UniProt Q96EN8 1-888); assay: IP/MS, LZTR1 wild type-FLAG, U87
T2 sequence (looked up): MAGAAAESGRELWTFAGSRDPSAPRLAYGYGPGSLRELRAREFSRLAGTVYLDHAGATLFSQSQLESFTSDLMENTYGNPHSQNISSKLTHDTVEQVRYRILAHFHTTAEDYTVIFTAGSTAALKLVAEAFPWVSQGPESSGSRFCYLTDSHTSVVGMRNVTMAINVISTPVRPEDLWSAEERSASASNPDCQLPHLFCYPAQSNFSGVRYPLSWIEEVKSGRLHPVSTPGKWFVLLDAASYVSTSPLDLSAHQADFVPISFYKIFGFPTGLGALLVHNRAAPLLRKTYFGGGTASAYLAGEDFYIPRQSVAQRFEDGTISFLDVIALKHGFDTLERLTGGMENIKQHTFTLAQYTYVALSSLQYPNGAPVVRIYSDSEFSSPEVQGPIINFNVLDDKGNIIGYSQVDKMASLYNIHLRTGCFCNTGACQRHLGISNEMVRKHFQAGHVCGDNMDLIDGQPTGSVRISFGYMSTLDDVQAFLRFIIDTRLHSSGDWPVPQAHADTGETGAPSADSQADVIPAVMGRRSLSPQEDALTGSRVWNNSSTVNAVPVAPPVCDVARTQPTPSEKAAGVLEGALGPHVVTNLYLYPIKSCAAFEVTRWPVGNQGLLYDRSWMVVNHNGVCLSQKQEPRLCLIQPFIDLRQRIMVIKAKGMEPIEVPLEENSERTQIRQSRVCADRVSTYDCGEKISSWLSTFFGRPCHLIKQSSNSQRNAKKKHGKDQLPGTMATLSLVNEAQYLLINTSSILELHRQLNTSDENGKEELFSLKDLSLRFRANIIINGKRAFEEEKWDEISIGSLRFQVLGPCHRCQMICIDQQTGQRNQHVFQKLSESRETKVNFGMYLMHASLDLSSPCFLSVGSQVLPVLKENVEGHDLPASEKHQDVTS
In short: as §1

B1: LZTR1-FLAG (other, human, UniProt Q8N653 1-840, looked up)
chain: MAGPGSTGGQIGAAALAGGARSKVAPSVDFDHSCSDSVEYLTLNFGPFETVHRWRRLPPCDEFVGARRSKHTVVAYKDAIYVFGGDNGKTMLNDLLRFDVKDCSWCRAFTTGTPPAPRYHHSAVVYGSSMFVFGGYTGDIYSNSNLKNKNDLFEYKFATGQWTEWKIEGRLPVARSAHGATVYSDKLWIFAGYDGNARLNDMWTIGLQDRELTCWEEVAQSGEIPPSCCNFPVAVCRDKMFVFSGQSGAKITNNLFQFEFKDKTWTRIPTEHLLRGSPPPPQRRYGHTMVAFDRHLYVFGGAADNTLPNELHCYDVDFQTWEVVQPSSDSEVGGAEVPERACASEEVPTLTYEERVGFKKSRDVFGLDFGTTSAKQPTQPASELPSGRLFHAAAVISDAMYIFGGTVDNNIRSGEMYRFQFSCYPKCTLHEDYGRLWESRQFCDVEFVLGEKEECVQGHVAIVTARSRWLRRKITQARERLAQKLEQEAAPVPREAPGVAAGGARPPLLHVAIREAEARPFEVLMQFLYTDKIKYPRKGHVEDVLLIMDVYKLALSFQLCRLEQLCRQYIEASVDLQNVLVVCESAARLQLSQLKEHCLNFVVKESHFNQVIMMKEFERLSSPLIVEIVRRKQQPPPRTPLDQPVDIGTSLIQDMKAYLEGAGAEFCDITLLLDGHPRPAHKAILAARSSYFEAMFRSFMPEDGQVNISIGEMVPSRQAFESMLRYIYYGEVNMPPEDSLYLFAAPYYYGFYNNRLQAYCKQNLEMNVTVQNVLQILEAADKTQALDMKRHCLHIIVHQFTKVSKLPTLRSLSQQLLLDIIDSLASHISDKQCAELGADI
notes: Expressed in HEK 293T, HeLa or U87 cells; used as cell lysate; also called LZTR1 wild type-FLAG; LZTR1 WT; not shown: FLAG tag at the C-terminus
binding result [1]: binds
binding result [2]: binds

— patent US20250262210A1 (TRUSTEES OF COLUMBIA UNIVERSITY IN THE CITY OF NEW YORK, published 2025)
